Assay: soluble on expression in E. coli; label from the status in PepcDB or PDB records

Sequence	soluble on expression in E. coli
MSLEGYSVLVLERHYRAGGYAHSFRRRKFIFDSAVRIAAGAMDGGLLEELLQEAGVSQDVEFLHLEDIYTAYYPNRKITVKGSVEGLIEAYCEEFPHECHNIRALVQEMEKLYEVTLMLLHSGDPLKVLSNPLMLKYRDKSFHDLTSSFLQDPQAIHSFAALWAYYGTPPTQGSAMFFAYAIMSYFKEDIYYAKGSFQSLADAFVKRIESLGGEVCLRNEVQRVEVEDRQIKGVHLQTGEYVEAEKVVCNGDFLKLVQHLVGEEHFPARYLKRISKLKPSISAFEVFLGVDLPLEKQGLSHETFIYNDYDYDLFMEKHQSLGEIGASGLSGLAISIPSLVDSSLAPEGMHTAILTTLVPYDIGCDWKEKKEDYQDQLIKMAERAIPNLGRHAVHVESGTPLTMERYTNNSFGSIYGWEQTKNQMTGRPQHETPIKGLYLSGQWTDPGGGIVSAILSGYKLRKKIMKEQVVMEGHHHHHH	not soluble
MSLDEILKQEMQKELTTRILPYWMERMVDQENGGFYGRITGQEELMPRADKGAILNARILWTYSAAYRLLGREEYKEMANRAKRYLIDHFYDSEFGGVYWSLNYRGEPLDTKKQIYAIGFAIYGLSEFHRATGDPEALMYAVRLFNDIESHSFDGLKNGYCEALTREWNEIADMRLSEKDANERKTMNTHLHILEPYTNLYRVWKDARLERQLYNLIGLFTEKILDKDTSHLQLFFDNDWQSKYPVVSYGHDIEASWLLHEAARVLGDAGLIAEIEPVVKKIAAAASEGLTSDGGMIYEKNLTTGHIDGDYHWWVQAETVVGYYNLFRYFGDRGALQHSIDCWEFIKRHLTDDVHGEWFWSLRADGSLNRDDDKAGFWKCPYHNGRMCIELLGEGHHHHHH	soluble
MGSDKIHHHHHHLQFAVLSSGSAGNCSLLMTDQHKILMDAGLSGKKTKELLAKVGVAIEDLDMVFLSHDHGDHSGGMGVLMRRYPQLNAFSNTVTWKYLEETGKIGCLPKDQINVIEPGQTKCYGDLEVTAFATSHDAAQPQYYVFSSGGKRLACLTDTGYVSEEVEYEIQDADAYLLEFNYDDLMLRSGPYPWSLQQRVRSDHGHLSNEQAAETLARVISSKTKHVFMAHRSQQNNLNYLARDVAEEVLAARDADVASDLELHDTEPMTPSSLINL	not soluble
MHENQQPQTEAFELSAAEREAIEHEMHHYEDPRAASIEALKIVQKQRGWVPDGAIHAIADVLGIPASDVEGVATFYSQIFRQPVGRHVIRYCDSVVCHINGYQGIQAALEKKLNIKPGQTTFDGRFTLLPTCCLGNCDKGPNMMIDEDTHAHLTPEAIPELLERYK	not soluble
MLEIDNQTPLESDFLLLEKIANVLAPTQIIELVLVSDETIREINKDLRGCDYATDVLSFPLEAIPHTPLGSVVINAPLAQTNALKLGHSLENEIALLFIHGVLHLLGYDHEKDKGEQRQKESELIKAFNLPLSLIERTQDLEHHHHHH	not soluble
SDEINAQSVWSEEISSNYPLCIKNLMEGLKKNHHLRYYGRQQLSLFLKGIGLSADEALKFWSEAFTNMTMEKFNKEYRYSFRHNYGLEGNRINYKPWDCHTILSKPRPGRGDYHGCPFRDWSHERLSAELRSMKLTQAQIISVLDSCQKGEYTIACTKVFEMTHNSASADLEIGEQTHIAHPNLYFERSRQLQK	soluble
MTSNHAILFPGQGAQRADMGAPIFDIYTKLVAEAEEIAEFSIRDFFRDCPADRFSNTLYVQPALYTVNALYYRRYIDESGALPLFLAGHSLGEFNALHAAGVFDFETGLRLVKKRALLMSESQGGGMAAVLGLNAEEVVKILEENNLFDLTIANINSDLQMVISGPIESIKQAEEIFYDNYAIKYVVLRVSGAFHSTMLNTAAIKFSEYIQGFSFLPPQIPVIANRTACPYTLSSVIKNLSEHINRPVMWRQSVIYMRTHGVERFTEMGETSLLLDMVKNIL	not soluble
AFSSTTTLTPSNVASREFIDTRAPNPEICVQYGASAMVMDARLFVTLNPFNVYVAQPNIRPGCVLRQNNWAILENKKLVTSDQVRECKNRLNTFGFTGNLDSEKPDIRCIYQNESAQNFFLSQPGAVGPSQDTERF	not soluble
MMVKSFTPPSSQSSVQDSGNSKLSVIEVVPENGIGALVSSSPTILRTTQAEPEILRYDPVEILAHYENKLLQVLRRTLAVLQPTLSYVFGLWLDNKRGVKVKNDRSRAIQLRELLTKLGPAYIKIGQALSTRPDLVPPVYLEELTRLQDQLPAFPNEIAYQFIEEELGAKPEEIYAEVSPEPIAAASLGQVYKGKLKTGEEVAIKVQRPDLREIITIDLYILRRLAGWVQRKVKRVRSDLVGILDELGDRIFEEMDYIHEGENAERFFELYGHIQDIYVPKIYWEYTNRRVLTMEWIKGIKLTQTSEIKELGIDARYLIEVGVQCSLRQLLEHGFFHADPHPGNLLATFDGKLAYLDFGMMSEIRPPQRYGLIEAIVHVVNRDFDSLAQDYVKLEFLSPETDLTPIIPAFGKVFANAQGASVAELNIKSITDDLSALMYEYPFRVPPYYALIIRSLVTLEGIAIYIDPNFKVLSEAYPYVSKRLLTDPADELRTSLRDLLFKMVNSGGIV	not soluble
MGSDKIHHHHHHMMSGHNKWANIKHRKMAQDAKKSKIFTKLIREIIVAAREGGGNIETNPRLRAAVERARAENMPKENIERAIKRGTGELEGVDYQEVIYEGYAPGGVAVYIRALTDNKNRTAQELRHLFNKYGGSLAESGSVSWIFERKGVIEISRDKVKDLEELMMIAIDAGAEDIKDAEDPIQIITAPENLSEVKSKLEEAGYEVEAKVTFIPKNTVKVTGKDAEKVLEFLNALEDMDDVQEVYSNFEMDDKEMEEILSRLEG	not soluble
MKPLLETIDTRFGTTNKHAFSRGNTLPYTGVPFGMNYFVPQTSDQDGSWFFDPHLPIFQGIRLTHQPSPWIGDYSWLLLTPVTSQLGGDSLFHRQSSYDIDKACFQPHYLKLFSLRYQIETQLTPTCYGASIRLNQKQGKALSLYLHAADELTVEQVDKRTLALRQEGKTETNKNSLTMFTLEHHHHHH	not soluble
MTAWLLSLALNLPFLGGPQEYQILVALGCSAPRHVQNGYREMLAHEVLPRLAEKVTTTQVRLTLAPITGRSYTAPARVLETPNPLSTPRFQLEEAKKTFQKEALRTFDELRKRAAAECSRGTEIIGALKAAGERARKPGRILVLAHGFEQSELMNLYDYRLKLEKREVRQGLLQRVKARLGLPNLKDQEVCIAGITAGNDNNANARLTTSIKAFWEELIQASGGRLVGYGTTPRVCPFL	soluble
MQTSDLLKKVRRIEIKARGLSRQIFAGQYHSAFRGRGMAFSEVREYTVGDDVRDIDWNVTARYARPYVKVFEEERELTVMLMVDMSGSLSFGTEVETKRELTAEVAATLAFSAIQNNDKIGVLFFTDRIEKYVPPAKGKKHILYIIRELLEFRPQSRATDLSVPLSYLTRLVKKRCTAFLISDFQSEKDSYEKTLLMSARKHDIVAIRIFDRREADLPNVGLMRFRDAETGQTHWVDTADSSVRKAYADAYERRQVALAVLLKRCGVDTTEIRTGQDFVQQLLILFKKRS	not soluble
MGSDKIHHHHHHGFESDNANKAGYTPELQEYDLQKYVLNLGVMQQGIYFNYDWGRGTDWTFQTIQNLGHDMFAGYFHDMNNSFNDKNSVYALNDGWTGSAWTYTYGYIMTAAQKSEKINQEQKGLLGVTKILKVELMHRIADTYGPIVYTKFGQEEGDNVDSQEAAYRQFFKDLDEGVKLINEYKKDNAALEPFAAADILMPAGKRTLSQWVKFANSLRLRLAIRVSMSAPDLARAEVAKAMDATAGGVLESADETVAVSTESGYKNPLGTVNEGWGEVFMGATMESVLVGYNDPRLIKYYSKAEGGDIKDEKGNLIIAERNKIAGTYKGVPQGTGVTVKDENRYRLHSKSTITKQTDAILMTAAEVWFLRAEAALRGFTSENVKDCYEKGITVSCQQWGVNVGDYLTSDATPSDYVDAFEAKYDVKALIKVTPKWDGGASPEEQLERILTQKWIACYPEGYEAWTEQRRTGYPQLFKVFVNNSGGAIDTNIRIRRLPYPSDIQKNNPTQYSALKKALGGEDNGGTRLWWDTGRNF	not soluble
MHRELLDALSVITEEEQRILDEQRGIDPQLYTEKKELIVDSEKLLKKGKLIQVRPHTRFVNFPKHKHNYVEVIYMCQGTTTHILNGSKVILEAGDLLFLNQNAEQEILPAGEQDIAVNFIVLPEFFDTAFSMMDMEEENALKEFLVGALCGKNDNTSYLYFHVAEILPIQNLVENMVWTIFYDQPNKRRCNQITMGLLLLQLLNHVDRMETGTAAFDRELTG	not soluble
MCRMFLCHGNFGEDAGRLFLALSETAKNDPLLVKAGSTWTSHSDGWGMAMLSDGSIRFEKHSRPVYEDSVPTIISSGTVLAHARKASPGEPLGNAFSHPFYAEDERYIVLLAHNGSLDKHRIANCDPKCYDRNTDSGLFLSYIMTFPGTVKERFERAIFESLKNGVFGKLTNLLVVALDKFTMIEERLYFSHNASRSEYGDLYLVNGRGWTGVFSSSILMSAHFPAYVSKSKVENDTVMDLP	not soluble
MGAQSHSLEITSSVSAEKIFSGIVLDVDTVIPKAATGAYKSVEVKGDGGAGTVRIITLPEGSPITTMTVRTDAVNKEALSYDSTVIDGDILLGFIESIETHMVVVPTADGGSITKTTAIFHTKGDAVVPEENIKFADAQNTALFKAIEAYLIAN	soluble
MITPKVLSGFKDRLPKDAIQKAQLLAKVSVVFQSFGFVPIETPHLEYAQTLLPDASSDIQKEIYRFKDHGDRDVALRFDLTVPLARFVSLHHQTLGMPFKRYAIGNVFRGERAQKGRYREFTQCDFDFIGSESLVCDAEIIQVIVASLKALDLEDFCVSINHRKILNGICEYFGISQVNEALRIVDKLEKIGLNGVEEELKKECGLNSNTIKELLELIQIKQNDLSHAEFFEKIAYLKDYNENLKKGIQDLERLYQLLGDLQISQNLYKIDFSIARGLGYYTGIVYETTLNEMKSLGSVCSGGRYDHLTKNFSKENLQGVGASIGIDRLIVALSEMQLLDERSTQAKVLIACMHEEYFSYANRLAESLRQSGIFSEVYPEAQKIKKPFSYANHKGHEFVAVIGEEEFKSETLSLKNMHSGMQLNCLSFLKALEIIGENDEDL	not soluble
GMPTDDIVQLLKGQEEAWNRGDLDAYMQGYWQNEQLMLISNGKFRNGWDETLAAYKKNYPDKESLGELKFTIKEIKMLSNYAAMVVGRWDLKRLKDTPTGVFTLLVEKIDDRWVITMDHSSD	soluble
MAHHHHHHMSGITVQLVFAFVGTRVPYFMPESATAASSPARSPFGNASSVSFNAAAQPTLRADSARTSPRLTPCIPTNLFTAHGLLSHLAKALEPSLHAAANPEAATAESASLSPTAPLPFHKPPVFELFDYASLDPLEGSAALRDEQVLLVLCDIATTAQLVEALQLEWLEVYSGVHHPHHRSCSASTPEPAHTTDMAVCTTEEKLRNVAHAQQALCKPVGLHLSLLRKELLSREATLAAQKEQLAQMRSCTTEGTAPAAPATASGSDGLSTPMLSGRAASFPLLVELEPSLSSEPAPSATDATHLQKLEAPLALCEARVRAVESLMQRAAKHHTKLLGLAASERATEEAFQRGNVSRACAEYLEHTEQDRSAAEAIIADYQVEMTRQVKVVRQLIAYITQVRKLASKAKYEMGVVELILSRLSLTSLRPRLMKEAEALLRRRVILRRAARRQMLLLQETEFVKLQQDLESFSQRMEVQKVLPEKVRWYLRAPLPSLMPEEDPVATLLDHALIDREEDEAQELVEKTRVYTADSSDPEKNALQITEALLPVERLARRLEEARASAAQYKSRVEELEERLKLYETAEALSPPPLQDSAVKSPSTERPAEGGGSFEEG	soluble
